In patent US20230399408A1 (AB THERAPEUTICS, published 2023):
Blank lines part the entries; values can stand above or below the molecule they belong to.

Key:
[1] = target: EGFR on NCI-H1975 cells (human) (UniProt P00533); test: flow cytometry on H1975 cells, dilutions 2.04e-4 to 400 nM, goat anti-human Fc-FITC; whole-cell binding, the cells also carry cMET
[2] = target: EGFR (UniProt P00533); test: separate experiment, method not restated (BLI in this example), EGFR binding
[3] = target: cMET (UniProt P08581); test: separate experiment, method not restated (BLI in this example), cMET binding
Sequence of cMET (P08581 25-932): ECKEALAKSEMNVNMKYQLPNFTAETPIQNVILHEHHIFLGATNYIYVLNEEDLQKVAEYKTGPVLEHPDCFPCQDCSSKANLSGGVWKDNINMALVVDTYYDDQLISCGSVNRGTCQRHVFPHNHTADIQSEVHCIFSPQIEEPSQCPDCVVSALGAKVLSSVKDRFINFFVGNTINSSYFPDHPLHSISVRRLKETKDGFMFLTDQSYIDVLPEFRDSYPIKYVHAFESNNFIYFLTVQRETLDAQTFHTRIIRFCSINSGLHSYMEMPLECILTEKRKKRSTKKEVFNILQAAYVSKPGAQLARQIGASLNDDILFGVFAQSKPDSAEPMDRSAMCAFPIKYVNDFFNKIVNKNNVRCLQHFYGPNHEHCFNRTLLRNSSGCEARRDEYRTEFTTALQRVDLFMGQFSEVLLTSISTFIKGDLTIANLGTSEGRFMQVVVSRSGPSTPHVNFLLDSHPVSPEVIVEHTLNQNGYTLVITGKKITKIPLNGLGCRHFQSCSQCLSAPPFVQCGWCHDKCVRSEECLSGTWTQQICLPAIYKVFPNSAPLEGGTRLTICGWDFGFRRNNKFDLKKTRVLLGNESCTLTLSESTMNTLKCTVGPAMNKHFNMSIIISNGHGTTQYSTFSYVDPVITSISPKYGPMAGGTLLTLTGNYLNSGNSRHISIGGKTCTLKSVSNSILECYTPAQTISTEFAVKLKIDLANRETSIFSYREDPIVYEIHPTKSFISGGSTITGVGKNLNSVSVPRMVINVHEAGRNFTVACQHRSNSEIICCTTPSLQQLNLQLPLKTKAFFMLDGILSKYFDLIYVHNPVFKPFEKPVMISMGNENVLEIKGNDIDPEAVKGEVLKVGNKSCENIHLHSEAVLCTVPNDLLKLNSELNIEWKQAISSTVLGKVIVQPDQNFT

[4] = target: cMET (UniProt P08581); test: BLI (Probelife)
[5] = target: EGFR mutant C797S on BaF3 cells (UniProt P00533); test: flow cytometry on EGFR mutant C797S-BaF3 cells, goat anti-human Fc-FITC
[6] = target: c-MET-His tag protein (human) (UniProt P08581); test: titration ELISA, c-MET-His coated
Sequence of c-MET-His tag protein (human) (P08581 25-932 limits assumed): as the sequence (P08581 25-932) above

[7] = target: EGFR on NCI-H1975 cells (human) (UniProt P00533); test: flow cytometry competition on H1975.HGF cells, streptavidin-PE; blocked ligand biotinylated EGF; fit value of a control curve that rises instead of falling
[8] = target: EGFR on NCI-H1975 cells (human) (UniProt P00533); test: flow cytometry on H1975 cells, dilutions 2.04e-4 to 400 nM, goat anti-human Fc-FITC; fit value of a flat control curve, beyond the tested range
[9] = target: EGFR mutant C797S on BaF3 cells (UniProt P00533); test: flow cytometry on EGFR mutant C797S-BaF3 cells, goat anti-human Fc-FITC; fit value of a flat control curve; the drawn table is identical to that of FIG. 23C
[10] = target: EGFR on NCI-H1975 cells (human) (UniProt P00533); test: flow cytometry on H1975.HGF cells, goat anti-human Fc-FITC; fit value of a flat control curve; the drawn table is identical to that of FIG. 23B
[11] = target: cMET on NCI-H1975 cells (human) (UniProt P08581); test: flow cytometry competition on H1975.HGF cells, streptavidin-PE; ligand biotinylated HGF; fit value of a nearly flat control curve
Sequence of cMET on NCI-H1975 cells (human) (P08581 25-1390): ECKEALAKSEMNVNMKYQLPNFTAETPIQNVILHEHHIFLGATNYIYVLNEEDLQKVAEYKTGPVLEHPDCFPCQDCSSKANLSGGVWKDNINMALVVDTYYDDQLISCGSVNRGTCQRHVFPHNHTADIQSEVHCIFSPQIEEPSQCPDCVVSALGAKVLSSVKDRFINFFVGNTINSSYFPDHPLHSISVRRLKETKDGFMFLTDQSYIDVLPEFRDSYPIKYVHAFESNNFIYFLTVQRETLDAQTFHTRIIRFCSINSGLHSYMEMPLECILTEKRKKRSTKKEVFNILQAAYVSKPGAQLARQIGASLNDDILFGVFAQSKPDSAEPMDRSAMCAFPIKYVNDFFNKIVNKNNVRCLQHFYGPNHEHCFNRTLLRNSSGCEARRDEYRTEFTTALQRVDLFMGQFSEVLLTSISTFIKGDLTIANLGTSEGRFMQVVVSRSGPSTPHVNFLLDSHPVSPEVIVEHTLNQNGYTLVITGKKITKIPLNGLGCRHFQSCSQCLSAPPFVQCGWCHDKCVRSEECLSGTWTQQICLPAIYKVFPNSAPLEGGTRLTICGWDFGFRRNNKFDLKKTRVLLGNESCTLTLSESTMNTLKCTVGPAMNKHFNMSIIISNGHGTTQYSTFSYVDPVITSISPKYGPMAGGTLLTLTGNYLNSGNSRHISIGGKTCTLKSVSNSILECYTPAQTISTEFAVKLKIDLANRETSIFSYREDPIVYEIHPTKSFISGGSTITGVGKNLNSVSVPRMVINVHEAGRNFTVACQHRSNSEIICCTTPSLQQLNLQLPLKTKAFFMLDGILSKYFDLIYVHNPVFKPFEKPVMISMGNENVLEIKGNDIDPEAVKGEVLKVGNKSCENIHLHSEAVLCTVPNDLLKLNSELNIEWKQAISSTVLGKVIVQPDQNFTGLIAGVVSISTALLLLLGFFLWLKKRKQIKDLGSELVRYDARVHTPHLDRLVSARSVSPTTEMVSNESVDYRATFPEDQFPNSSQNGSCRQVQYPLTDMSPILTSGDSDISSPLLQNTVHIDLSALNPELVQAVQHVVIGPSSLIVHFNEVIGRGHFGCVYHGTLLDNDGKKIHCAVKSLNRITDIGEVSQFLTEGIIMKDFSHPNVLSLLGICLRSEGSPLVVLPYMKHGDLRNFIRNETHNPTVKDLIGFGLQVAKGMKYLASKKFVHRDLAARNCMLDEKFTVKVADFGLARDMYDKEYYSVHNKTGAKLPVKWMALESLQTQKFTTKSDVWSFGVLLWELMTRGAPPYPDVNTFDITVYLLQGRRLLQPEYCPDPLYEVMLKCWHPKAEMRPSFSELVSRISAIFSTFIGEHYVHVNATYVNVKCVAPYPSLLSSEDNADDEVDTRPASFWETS

[12] = target: cMET on NCI-H1975 cells (human) (UniProt P08581); test: flow cytometry competition on H1975 cells, streptavidin-PE; blocked ligand biotinylated HGF; fit value of a nearly flat control curve (about 6500 to 6200)
[13] = target: EGFR mutant C797S on BaF3 cells (UniProt P00533); test: flow cytometry competition on EGFR mutant C797S-BaF3 cells, streptavidin-PE; blocked ligand biotinylated EGF; fit value of a flat control curve
[14] = target: T1, human cMET (human, UniProt P08581 25-932); test: binding ELISA, plate coated with human cMET at 1 ug/mL, clone at 10 ug/mL, biotinylated anti-c-Myc 9E-10 and streptavidin detection
T1 construct: Coated antigen of the cross-reactivity ELISA; also called human antigen; anti-Hu
T1 sequence (P08581 25-932): as the sequence (P08581 25-932) above
Experimental: A high binding ELISA plate was coated with 1 μg/mL (diluted in 1×PBS) human or monkey antigens and kept at 4° C. overnight. On the next day, the plate was blocked with a blocking buffer (4% non-fat milk in 1×PBS) for 1 hour at 37° C. After blocking, the plate was washed three times with PBST. The antibody samples to be tested were diluted in PBS and then added to the corresponding wells (10 μg/mL). The plate was incubated at 37° C. at RT for 1 hour. After the incubation, the plate was washed three times with the PBST. Next, a secondary antibody (biotinylated anti-c-Myc antibody 9E-10, diluted at 1:500) was added to the wells and the plate was incubated at 37° C. at RT for 1 hour. The plate was then washed three times with PBST. Afterwards, streptavidin-RP, diluted at 1:1000, was added to each well and then the plate was incubated at 37° C. at RT for 1 hour. After the incubation, the plate was washed four times with PBST. After washing, the plate was developed by adding the Amplex reagent substrate and then the luminescent signal was measured at 530 nm and 590 nm in a SpectraMax plate reader.

[15] = target: T2, c-MET-His tag protein (human, UniProt P08581 25-932); test: BLI (Probelife Gator), cMET-His on HIS probe saturated with 1H1-cMET-VHH-Fc, second antibody at 5 ug/ml
T2 construct: also called cMET-HIS tagged; not shown: His tag
T2 sequence (P08581 25-932 limits assumed): as the sequence (P08581 25-932) above
Experimental: Briefly, a baseline was established using HIS probes in Quantitation (Q) buffer (a phosphate buffered saline solution with bovine serum albumin to decrease non-specific and background signal). The antigen (cMET-HIS tagged) to the HIS probe was added in 5 μg/ml cMET solution in Q buffer. HIS probes in Q buffer were used to return to the baseline. […] Finally, the secondary antibody was associated through HIS Probes in 5 μg/ml of antibody diluted in Q buffer.

EC50 [1]: 0.46 nM | Kd [2]: 0.689 nM | Kd [3]: 0.432 nM | Kd [4]: 0.405 nM | EC50 (read off the curve) [5]: 3 nM | EC50 [6]: 4.89 ng/mL
Molecule: JNJ372 analog (bispecific antibody)

binding result [14]: binds
B1: 1A12 (VHH)
VHH: QVQLVESGGGLVQPGGSLRLSCAASGFTFNSYWMYWVRLAPGKGIEWVSATDTRGQNTYYTDSVKGRFTISRDNAKNMVSLQMNNLKSEDTAVYYCALGNRWGTFPNRGPGTLVTVSS
notes: it is not the VHH-Fc fusion m11; also called cMET-1A12; clone 1A12

Further lines, the molecule ahead of its results:

Molecule: Neg.control (antibody)
EC50 [7]: 26.4 nM | EC50 [8]: 11.1 µM | EC50 [9]: 0.0262 nM | EC50 [10]: 26.4 nM | EC50 [11]: 1.08 nM | EC50 [12]: 0.112 nM | EC50 [13]: 0.0262 nM

B2: cMET-1A12 VHH-Fc (Fc fusion)
chain: QVQLVESGGGLVQPGGSLRLSCAASGFTFNSYWMYWVRLAPGKGIEWVSATDTRGQNTYYTDSVKGRFTISRDNAKNMVSLQMNNLKSEDTAVYYCALGNRWGTFPNRGPGTLVTVSS
notes: not shown: hinge and Fc of the VHH-Fc
binding result [15]: binds
